The values that follow come from US20250320282A1 (MABYLON, published 2025).

Changes are numbered by the printed parent chain.

Assay [1] concerns the target T1, Ara h 6 (Arachis hypogaea allergen 6) (Arachis hypogaea, UniProt Q647G9 22-145).
T1 construct: Peanut allergen; also called Ara h 6.0101; nAra h 6
T1 sequence: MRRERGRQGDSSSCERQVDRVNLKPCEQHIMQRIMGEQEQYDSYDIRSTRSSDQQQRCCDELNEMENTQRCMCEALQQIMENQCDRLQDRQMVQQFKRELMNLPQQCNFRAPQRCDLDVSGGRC
Put plainly: ELISA, purified rabbit antibody.

The target of assay [2] is T1, Ara h 6 (Arachis hypogaea allergen 6). Put plainly: ELISA, Fab titration on coated Ara h 6. As for the experimental part: Next, the effect of the engineered variable regions on antigen binding was tested. Briefly, ELISA plates were coated with respective Ara h proteins (Ara h 2:0.05 ug/ml, Ara h 6:0.1 ug/ml, Ara h 3 loop (2nd): 0.1 ug/ml) overnight at 4° C. Afterwards, plates were blocked with BSA (2% in PBS) for 1 hour at room temperature. Fab fragment titration series starting from 4 ug/ml was prepared, added to the single ELISA plate wells and incubated for 2 h at room temperature. The read-out was performed by adding anti-hu-kappa/lambda-HRP (anti-kappa Invitrogen (A18853) and anti-lambda abcam (ab99811) for 1 h at room temperature. Tetramethylbenzidine substrate solution (TMB, Sigma-Aldrich Chemie GmbH, Buchs, Switzerland) was added, then after 5 minutes of hydrolysis time, the reaction was stopped by the addition of 1 M H₂SO₄ and the absorbances were read at 450 nm.

B1: 7G6_rb_IGHV1S47_J3+IGKV1S19_JK1-2 (antibody, V domains shown)
VH: QEQLVESGGGLVQPEGSLTLTCKASGFDFSDYTMHWVRQAPGKGPEWIAAISYGGTNKYYADSVKGRFTISRSTSLNTVTLQMTSLTAVDTATYFCARDSGYRSLLHWGQGTLVTVSS
VL: AAVLTQTPSPVSAAVGGTVTIKCRSSQSLVHRNGYNYLDWYQQKPGQPPKLLIYMASKRASGVPDRFSGSGSGTQFTLTISGVQCDDAATYYCMQALQTWTFGGGTKVVVK
Consider B1, for which the binding result in assay [1] is recorded as “binds”.

B2: 7G6_rb_IGHV1S47_J3+IGKV1S19_JK1-3 (antibody, V domains shown)
VH: B1 VH
VL: B1 VL with F102L, G104P, V108L, V109E, V110I
As to B2, the binding result in assay [1] is “binds”.

B3: 7G6_rb_IGHV1S47_J3+K66N_IGKV1S19_JK1-2 (antibody, V domains shown)
VH: B1 VH
VL: B1 VL with K58N
notes: Fully rabbit antibody: 7G6 CDRs grafted onto rabbit variable frameworks
For the molecule B3, the binding result in assay [1] is “binds”.

B4: 15E3_rb_IGHV1S8_J5+IGLV2S2_JL5 (antibody, V domains shown)
VH: QKQLVESGGGLDQPAGSLKLSCKDSGFTLSTFYMTWVHQAPGKGLEWIANIKQDGSEKDYLDSVRGRFTISSDNTQNMVDLEMNSLTAADMAIYFCARNGLQDSYSGDFFDHWGQGTLVTVSS
VL: QPALTQPSSVSGALGGSVTITCSGTGSNIGHNYVSWYQQLPGSVPKLLMFDNTKRPSGIPERFSGSKSGTTASLTISGLQPEDEADYYCATWDADLSAVLFGGGTKLTVL
As for B4, the binding result in assay [1] is listed as “binds”.

B5: MY006-2F8 Fab Hg (Fab, V domains shown)
VH: EVQLVESGGGLVQPGGSLRLSCAASGFIFSDYNMNWVRQAPGKGLEWVSSITRSSRTIYYADSVKGRFTISRDNAKNSLYLQMNSLRDEDTAVYYCAREDFDVSTGPYYMDVWGKGTTVTVSS
VL: EIVLTQSPGTLSLSPGERATLSCRASQSVSNMFLVWYQQKPGQAPRLLMYGASTRATDIPDRFSGSGSGTDFTLTISRLEPEDFAVYYCQQNGNSPYTFGQGTKLEIK
notes: Germlined variant, IgG1-Fab format; also called 2F8 Hg
As to B5, the binding result in assay [2] is on record as “binds”.

B6: MY006-2F8 Fab Lg (Fab, V domains shown)
VH: B5 VH with Q13K, Y80H, E89A, K115N, T120I
VL: B5 VL with D58G
notes: Germlined variant, IgG1-Fab format; also called 2F8 Lg
For B6, the binding result in assay [2] was “binds”.

B7: MY006-2F8 Fab Lf (Fab, V domains shown)
VH: B5 VH with Q13K, Y80H, E89A, K115N, T120I
VL: B5 VL with M49I, D58G
notes: Germlined variant, IgG1-Fab format; also called 2F8 Lf
Regarding B7, in assay [2], the binding result is “binds”.

B8: MY006-2F8 Fab Hg Lg (Fab, V domains shown)
VH: B5 VH
VL: B5 VL with D58G
notes: Germlined variant, IgG1-Fab format
Consider B8, for which, in assay [2], the binding result is “binds”.

B9: MY006-2F8 Fab Hg Lf (Fab, V domains shown)
VH: B5 VH
VL: B5 VL with M49I, D58G
notes: Germlined variant, IgG1-Fab format; also called 2F8: Hg/Lf
For the molecule B9, the binding result in assay [2] is reported as “binds”.

B10: MY006-15E3 Fab Hg Lg (Fab, V domains shown)
VH: EVQLVESGGGLVQPGGSLRLSCAASGFKFSTFYMTWIRQAPGKGLEWVANIKQDGSEKDYLDSVRGRFTISRDNAKSSLYLQMNSLRAEDTAVYYCTRNGLQDSYSGDFFDHWGQGTLVTVSS
VL: QSVLTQPPSVSAAPGQKVTISCSGTGSNIGHNYVSWYQQLPGTAPKLLIFDNTKRPSGIPDRFSGSKSGSSATLGITGLQTGDEADYFCATWDADLSAVLFGGGTKLTVL
notes: as for B8
Turning to B10, in assay [2], the binding result is “binds”.

B11: MY006-15E3 Fab Hg Lf (Fab, V domains shown)
VH: B10 VH
VL: B10 VL with F50Y, S70T, F88Y
notes: as for B8
In the case of B11, the binding result in assay [2] was “binds”.

B12: MY006-15E3 Fab Lf (Fab, V domains shown)
VH: B10 VH with G10A, T69N, S78V, S85T, R87S, E89D, A92G, T117I
VL: B10 VL with F50Y, S70T, F88Y
notes: Germlined variant, IgG1-Fab format; also called 15E3 Lf
In the case of B12, the binding result in assay [2] is “binds”.

B13: MY006-15E3 Fab Hf Lg (Fab, V domains shown)
VH: B10 VH with I37V, S77N
VL: B10 VL
notes: Germlined variant, IgG1-Fab format; also called 15E3: Hf/Lg
As for B13, the binding result in assay [2] was “binds”.

B14: MY006-15E3 Fab Hg (Fab, V domains shown)
VH: B10 VH
VL: B10 VL with V10I, G42R, K46R, D86H
notes: Germlined variant, IgG1-Fab format; also called 15E3 Hg
Regarding B14, the binding result in assay [2] is listed as “binds”.

B15: MY006-15E3 Fab Lg (Fab, V domains shown)
VH: B10 VH with G10A, T69N, S78V, S85T, R87S, E89D, A92G, T117I
VL: B10 VL
notes: Germlined variant, IgG1-Fab format; also called 15E3 Lg
Take B15: the binding result in assay [2] is “binds”.

B16: MY006-15E3 Fab Hf (Fab, V domains shown)
VH: B10 VH with I37V, S77N
VL: B10 VL with V10I, G42R, K46R, D86H
notes: Germlined variant, IgG1-Fab format; also called 15E3 Hf
B16: the binding result in assay [2] is “binds”.

B17: MY006-15E3 Fab Hf Lf (Fab, V domains shown)
VH: B10 VH with I37V, S77N
VL: B10 VL with F50Y, S70T, F88Y
notes: as for B8
B17: the binding result in assay [2] was “binds”.

B18: MY006-7G6 Fab Hg Lg (Fab, V domains shown)
VH: QVQLVESGGGVVQPGRSLRLSCAASGIAFNDYTMHWVRRAPGKGLEWVAAISYGGTNKYYADSVKGRFTISRDSSKNTLYLQMNSLRAEDTAVYYCARDSGYRSLLHWGQGTLVTVSS
VL: EIVLTQSPLSLPVTPGEPASISCRSSQSLVHRNGYNYLDWYLQKPGQSPQLLIYMASKRASGVPDRFSGSGSGTDFTLKISRVEAEDVGVYYCMQALQTWTFGQGTKVEIK
notes: as for B8
On to B18, for which the binding result in assay [2] is “binds”.

B19: MY006-7G6 Fab Hf (Fab, V domains shown)
VH: B18 VH with R39Q, S74N
VL: B18 VL with D75E, V90I, I110V, K111N
notes: Germlined variant, IgG1-Fab format; also called 7G6 Hf
Consider B19, for which the binding result in assay [2] is recorded as “binds”.

B20: MY006-7G6 Fab Hf Lf (Fab, V domains shown)
VH: B18 VH with R39Q, S74N
VL: B18 VL with E1D, L4M
notes: as for B8
Regarding B20, the binding result in assay [2] is given as “binds”.

B21: MY006-7G6 Fab Hf Lg (Fab, V domains shown)
VH: B18 VH with R39Q, S74N
VL: B18 VL
notes: Germlined variant, IgG1-Fab format; also called 7G6: Hf/Lg
With B21, the binding result in assay [2] is on record as “binds”.

B22: MY006-7G6 Fab Lg (Fab, V domains shown)
VH: B18 VH with A40S, G42D, Y80F, N84D, A88V
VL: B18 VL
notes: Germlined variant, IgG1-Fab format; also called 7G6 Lg
With B22, in assay [2], the binding result is “binds”.

B23: MY006-7G6 Fab Hg Lf (Fab, V domains shown)
VH: B18 VH
VL: B18 VL with E1D, L4M
notes: as for B8
For B23, in assay [2], the binding result is “binds”.

B24: MY006-7G6 Fab Hg (Fab, V domains shown)
VH: B18 VH
VL: B18 VL with D75E, V90I, I110V, K111N
notes: Germlined variant, IgG1-Fab format; also called 7G6 Hg
Turning to B24, the binding result in assay [2] was “binds”.

B25: MY006-7G6 Fab Lf (Fab, V domains shown)
VH: B18 VH with A40S, G42D, Y80F, N84D, A88V
VL: B18 VL with E1D, L4M
notes: Germlined variant, IgG1-Fab format; also called 7G6 Lf
Turning to B25, the binding result in assay [2] is “binds”.
